Results taken from US20080181899A1 (Regeneron, published 2008).

T1: hDII3-hFc (human delta-like ligand 3 fused to human Fc) (human, UniProt Q9NYJ7 27-490)
T1 construct: not shown: human Fc
T1 sequence: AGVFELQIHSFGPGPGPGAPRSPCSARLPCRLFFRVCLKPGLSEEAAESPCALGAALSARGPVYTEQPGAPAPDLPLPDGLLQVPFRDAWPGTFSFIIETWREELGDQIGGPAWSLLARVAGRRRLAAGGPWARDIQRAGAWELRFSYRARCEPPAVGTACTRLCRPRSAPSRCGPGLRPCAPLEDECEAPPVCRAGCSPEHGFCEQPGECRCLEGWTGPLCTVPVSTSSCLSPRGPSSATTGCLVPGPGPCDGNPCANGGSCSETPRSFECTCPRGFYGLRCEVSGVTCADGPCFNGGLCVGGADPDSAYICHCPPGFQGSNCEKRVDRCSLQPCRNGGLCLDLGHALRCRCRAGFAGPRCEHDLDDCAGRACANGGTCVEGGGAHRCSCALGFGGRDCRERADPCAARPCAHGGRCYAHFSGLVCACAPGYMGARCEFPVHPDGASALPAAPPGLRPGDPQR

T2: hDII1-hFc (human delta-like ligand 1 fused to human Fc) (human, UniProt O00548 18-544)
T2 construct: not shown: human Fc
T2 sequence: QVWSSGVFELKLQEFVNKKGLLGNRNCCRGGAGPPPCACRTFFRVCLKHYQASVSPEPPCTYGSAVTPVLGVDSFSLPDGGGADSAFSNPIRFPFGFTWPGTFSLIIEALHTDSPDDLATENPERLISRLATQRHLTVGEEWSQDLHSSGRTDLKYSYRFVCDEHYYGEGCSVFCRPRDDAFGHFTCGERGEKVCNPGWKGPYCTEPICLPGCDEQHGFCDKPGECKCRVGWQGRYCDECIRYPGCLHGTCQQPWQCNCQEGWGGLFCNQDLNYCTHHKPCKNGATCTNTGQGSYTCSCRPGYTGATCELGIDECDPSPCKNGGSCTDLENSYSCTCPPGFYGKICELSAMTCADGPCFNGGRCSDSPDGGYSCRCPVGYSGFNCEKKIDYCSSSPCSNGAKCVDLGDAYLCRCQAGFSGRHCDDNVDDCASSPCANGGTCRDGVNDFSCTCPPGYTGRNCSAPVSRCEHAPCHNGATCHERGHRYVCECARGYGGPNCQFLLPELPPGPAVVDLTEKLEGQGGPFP


How the values were obtained:
[1] = target: hDII4 on cells (DII4 expressing HUVEC; engineered C6 rat glioma cells expressing hDII4) (human, UniProt Q9NR61 27-685); experiment: cell-based or functional assay
hDII4 on cells (DII4 expressing HUVEC; engineered C6 rat glioma cells expressing hDII4), sequence (Q9NR61 27-685 limits assumed, change not shown): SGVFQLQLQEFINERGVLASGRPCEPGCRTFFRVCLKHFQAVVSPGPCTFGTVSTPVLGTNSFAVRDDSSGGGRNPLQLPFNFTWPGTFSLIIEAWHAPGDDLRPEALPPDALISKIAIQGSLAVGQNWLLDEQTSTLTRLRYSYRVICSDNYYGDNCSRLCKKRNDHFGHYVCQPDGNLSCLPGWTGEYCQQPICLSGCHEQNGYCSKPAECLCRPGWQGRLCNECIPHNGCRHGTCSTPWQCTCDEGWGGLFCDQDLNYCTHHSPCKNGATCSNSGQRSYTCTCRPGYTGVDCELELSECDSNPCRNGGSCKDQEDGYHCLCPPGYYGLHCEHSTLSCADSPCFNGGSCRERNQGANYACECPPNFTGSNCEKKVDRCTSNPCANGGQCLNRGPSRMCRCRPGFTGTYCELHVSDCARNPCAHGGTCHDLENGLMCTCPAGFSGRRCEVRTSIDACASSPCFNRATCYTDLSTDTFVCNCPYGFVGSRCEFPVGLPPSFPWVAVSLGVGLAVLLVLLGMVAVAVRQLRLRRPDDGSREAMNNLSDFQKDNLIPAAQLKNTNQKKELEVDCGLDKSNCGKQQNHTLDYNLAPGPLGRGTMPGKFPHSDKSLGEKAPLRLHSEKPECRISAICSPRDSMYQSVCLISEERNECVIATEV

[2] = target: T3, dimeric hDII4-hFc (human, UniProt Q9NR61 27-524, biotin in Example 3 (biotin-DII4-hFc), site not stated); experiment: cell-based or functional assay
[3] = target: T3, dimeric hDII4-hFc; experiment: cell-based or functional assay; remark: listed apart in the source
[4] = target: T1, hDII3-hFc (human delta-like ligand 3 …); experiment: OCTET; antibody captured by biotin-anti-hK on streptavidin biosensor
Experimental: Briefly, strepavidin high binding FA biosensors (ForteBio, Inc., Menlo Park, Calif.) were first incubated with biotin-anti-hK at 5 μg/ml for 10 min at 30° C., to achieve saturation. […] Changes in the thickness of the biological layer after each incubation were measured.

[5] = target: T2, hDII1-hFc (human delta-like ligand 1 …); experiment: SPR BIACORE; antibody captured by anti-human kappa; hDII1-hFc analyte
Experimental: Cross-reactivity of the antibodies to human delta-like ligand1 (SEQ ID NO:953) and human delta-like ligand 3 (SEQ ID NO:954) proteins was determined.

[6] = target: T4, monomeric hDII4 (human delta-like ligand 4) (human, UniProt Q9NR61 27-524); experiment: SPR BIACORE; antibody captured by anti-hFc; monomeric DII4 analyte
T4 construct: also called monomeric DII4 protein
Experimental: (§1) Equilibrium dissociation constants (KD values) for antigen binding to the selected antibodies described above were determined by surface kinetics on a real-time biosensor surface plasmon resonance assay (BIACORE™ 2000). The antibody was captured on a goat anti-mouse IgG polyclonal antibody surface created through direct chemical coupling to a BIACORE™ chip to form a captured antibody surface. […] Kinetic analysis was performed to calculate KD, dissociation rate constants, and half-life of antigen/antibody complex dissociation (Table 1). […] Antibodies were presented by goat anti-hFc polyclonal antibody reagent (Jackson Immuno Research Lab) immobilized on BIACORE™ chip, and exposed to either dimeric DII4-mFc or monomeric DII4 protein (Table 2).

[7] = target: T5, hDII4-mFc (human, UniProt Q9NR61 27-524); experiment: SPR BIACORE; antibody captured by anti-hFc; dimeric DII4-mFc analyte
T5 construct: also called dimeric DII4-mFc; not shown: mouse Fc
T5 sequence (Q9NR61 27-524 limits assumed): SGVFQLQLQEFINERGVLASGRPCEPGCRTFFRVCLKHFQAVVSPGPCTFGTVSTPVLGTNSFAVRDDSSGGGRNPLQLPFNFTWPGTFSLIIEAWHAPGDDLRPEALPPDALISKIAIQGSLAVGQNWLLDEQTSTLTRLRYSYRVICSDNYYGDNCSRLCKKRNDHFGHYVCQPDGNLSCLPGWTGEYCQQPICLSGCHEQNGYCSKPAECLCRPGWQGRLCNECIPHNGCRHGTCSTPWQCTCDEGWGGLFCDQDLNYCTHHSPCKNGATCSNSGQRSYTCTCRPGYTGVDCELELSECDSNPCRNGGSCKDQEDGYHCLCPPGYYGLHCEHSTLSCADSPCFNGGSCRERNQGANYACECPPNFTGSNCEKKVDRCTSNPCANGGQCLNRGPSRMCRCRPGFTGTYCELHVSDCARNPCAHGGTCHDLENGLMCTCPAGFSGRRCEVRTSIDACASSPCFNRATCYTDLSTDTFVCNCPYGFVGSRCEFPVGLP
Experimental: as §1

[8] = target: T3, dimeric hDII4-hFc; experiment: competition ELISA; antibody titrated against 25 pM biotin-DII4-hFc; free biotin-DII4-hFc on Notch-hFc plate
Experimental: The ability of the antibodies to block DII4 binding to Notch was evaluated with an ELISA-based immunoassay. Briefly, Notch-hFc recombinant protein was coated on a 96-well plate in PBS buffer overnight at 4° C. at […], and the nonspecific binding sites were blocked with BSA.

[9] = target: T1, hDII3-hFc (human delta-like ligand 3 …); experiment: SPR BIACORE; ligand amine-coupled to CM-5 chip; antibody injected
From the text: An alternative BIACORE™ format was used to assess cross-reactivity between anti-hDII4 antibody and either hDII1-hFc or hDII3-hFc.

Row | EphrinB2 Expression IC50 [1] [pM] | Hes1 Expression IC50 [1] [pM] | HUVEC proliferation assay IC50 [2] [pM] | Notch-inducible luciferase assay IC50 (pM), 1 nM hDII4-hFc [3] [pM] | Notch-inducible luciferase assay IC50 (pM), 1.5 nM hDII4-hFc [3] [pM] | binding result [4] | binding result [5] | Kd [6] [pM] | Kd [7] [pM] | IC50 [8] [pM] | binding result [9] | Binder
1 | 305 | 329 | 96 | 50.5 | 78.7 | no binding (tested: 200 nM) | no binding (tested: 100 µg/ml) | 399 | 18 | 50 | – | 318518-01A10-D8 (antibody, human IgG1, HCVR 429 with hIgG1 constant region 950; also called REGN281; 318518-1A10-D8) heavy: not shown VL: EIVMTQSPATLSLSPGERATLSCRASQSVSSYLAWYQQKPGQAPRLLIYDASNRATGIPARFSGSGSGTDFTLTISSLEPEDFAVYYCQHRSNWPPTFGGGTKVEIK
2 | – | – | – | 88.2 | 131 | – | no binding (tested: 100 µg/ml) | – | – | – | no binding (tested: 300 µg/ml) | REGN422 (antibody, human IgG4 S228P, HCVR 901 with modified hIgG4 constant region 952) heavy: not shown VL: EIVLTQSPATLSLSPGERATLSCRASQSVSSYLAWYQQKPGQAPRLLIYDASNRATGIPARFSGSGSGTDFTLTISSLEPEDFAVYYCQHRSNWPPTFGGGTKVEIK
3 | – | – | – | 54.4 | 87.3 | – | no binding (tested: 100 µg/ml) | – | – | – | no binding (tested: 300 µg/ml) | REGN421 (antibody, human IgG1, HCVR 901 with hIgG1 constant region 950) heavy: not shown VL: EIVLTQSPATLSLSPGERATLSCRASQSVSSYLAWYQQKPGQAPRLLIYDASNRATGIPARFSGSGSGTDFTLTISSLEPEDFAVYYCQHRSNWPPTFGGGTKVEIK
